# Results published in the nanobody polyreactivity screen of Harvey et al. (2022).
# Test: yeast display, Sf9 membrane polyspecificity reagent, FACS + sequencing; frameworks hold sequencing errors
# In short: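 Synthetic nanobody libraries on Saccharomyces cerevisiae BJ5465 were galactose-induced for 36–48 hours, stained 1 hour at 4 °C with 10% biotinylated, detergent-solubilized Sf9 membrane reagent and enriched on streptavidin microbeads. FACS then separated cells into low and high (top ~1%) gates by anti-HA (expression) and streptavidin (reagent binding) fluorescence. Genes were colony-PCR amplified, MiSeq 2 × 250 sequenced and CDR-length filtered. A clone's polyreactivity label is that of its gate of origin.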
row,Sequence,polyreactivity (PSR sort gate)
1,QVQLVESGGGLVQAGGSLRLICAASGRTFGGYAMASYRQAPGKERELVAAITYSGSSTYYADSVKGRFTISRDNAKNTVYLQMNSLKPEDTAVYYCAARGRQTWYNYWGQGTQVTVSS,high polyreactivity
2,QVQLVESGGGLVEAGGSLRLSCAASGYIFKSYVMGWYRQAPGTERELVAAITWSGGSTYYADSVNGRFTISRDNAKNTVYLQMNSLNPEDTAVYYCAAYPRRYRTTYDYWGQGTQVTVSS,high polyreactivity
3,QVQLVESGGGLVQAGGSLRLSCAASGRISDDYAMGWYRQAPGKERELVADITSGGNTYYADSVKGRFTISRDNAKNTVYLQMNSLKPEDTAVYYCNAYYVGYIRYWTNKLVDYWGQGTQVTVSS,high polyreactivity
4,QVQLVESGGGLVQAGGSLRLSCAASASTFWFNVMGWYRQATGKETELDAVITWTGGSTSYADSVKGRFTISRDNAKNTVYLQMNSLKPEDTAVYYCATPVKFGGVPYRYGYWGQGTQVTVSS,low polyreactivity
5,QVQLVESGGGLVQAGGSLRLTSAASGRIFGYYAMGWYRQAPGKERDLVAAIRYSSGRTYYADSVKGRFTISRDNAKNIVYLQMNSLKPEDTAVYYGNAGYLFLRSYPHDYWGQGTQVTVSS,high polyreactivity
6,QVQLVESGGGLVQAGGSLRLSCAASGITLARNAMGWYRQAPGKERELVASITWSGGTTYYADSVKGRFTISRDNAKNTVYLQMNSLKPEDTAVYYCAASAKLHFYRTYRYNYWGQGTQVTVSS,high polyreactivity
7,QVQLVESGGGLVQAGGSLRLSCAASGSTSGSNAMGWYRQAPGKERELVAGISYSTADTNYADSVKGRFTISRDNAKNTVYLQMNSLKPEDTAVYYCATDPFGIASRHDDYWGQGTQVTVSS,low polyreactivity
8,HYHLVESGGGLVQAGGSLRLSCAASAFTFVQYAMGWYRQAPGKERELVATISKSGGITYYADSVKGRFTISRDNAKNTVYLQMNSLKPEDTAVYYCAAAWYYSSRGFHATWGHDYWGQGTQVTVSS,low polyreactivity
9,QVQLVESGGGLVQAGGSLRLSCAASGFTLIYYAMGWYRQAPGKERELVAGISRGVSTSYADSVMGRFTISRDNAKNTVYLQMNSLKPEDTAVYYCAAEGSPVDQSSIYDYWGQGTQVTVSS,low polyreactivity
10,QVQLVESGGGLVQAGGSLRLSCAASGRTFVGYAMGWYRQPPGKERELVAAISGSGVRTYYADSVKGRFTISRDNAKNTGYLQMNSLKPEDTAVYYCADRRYRRWYDYWGQGTQVTVSS,high polyreactivity
11,QVQLVESGGGLVQAGGSLRLSCAASGRIFRYYMRWYRQAPGKERKLVAVISSGGRTKYADSVKGRFTISRDNAKNTVYLQMNILKPQDTAVYYCAARYPREAAYVFDYWGQGTLVTVSS,high polyreactivity
12,QVQLVESGGGLVQAGGSLRLICAASGIIYYYYAMGWYRQAPGKERELVAAINFSVGGTYYADSVKGSFTNSRDNAKNSVYLQMNSQKPEDTAVYYCAKDIVIPATYVEYDYWGQGTQVTVSS,low polyreactivity
13,QVQLVESGGGLVQAGGSLRLSCAASGRTFKYYAMGWYRQAPGKERELVAAISYNGGSTFYADSVKGRFTISRDNAKNTVYLQMNSLKPEDTAVYYCAAGSRYASELDYWGQGTQVTVSS,high polyreactivity
14,QVQLVESGGGLLQAGGSLRLSCASSGLIFLGYTMGRYIQAPGKERELVAAISRRGGRTYYADSVKGLFTISRDNAKNTVYLLMNSLKPEDTAVYYCNADITSSGPKSDYWGQGTQVTVSS,high polyreactivity
15,QVQLVESVGGLVQAGGSLRLSCAASGSNFKYYAMGWYRQAPGKERELVAAITIGGNTNYADSVKGRFTISRDNAKNTVYLQMNSLKPEDTAVYYCATGGYYSAIVYGGYDYWGQGTQVTVSS,low polyreactivity
16,QVQLVESGGGLVQAGGSLRLSCAAAGFIFWSNAMGWYRQAPGKERELVAAIRNTGSTNYADSVKGRFTISRDNAKNTVYLQMNSLKPEDTAVYYCATKPYPYYLYYYWGQGTQVTVSS,high polyreactivity
17,QVQLQESGGGLVQAGGSLRLSCAASGSISGPHVMGWYRQAPGKVREFVAAINVGANTYYADNVKGRFTISRDNAKNTVYLQMNSLKPEDTAVYYCAAAYYGDIGHEYWGQGTQVTVSS,low polyreactivity
18,QVQLVESGGGLVQAGGSLRLSCAASGISIRSYAMGWYRQAPGKERELVAAIRSGGSTSYADSVKGRFTISRDNAKNTVYLLMNSLKPEDTAVYYCAAGGYVPLPDITFWKFGYWGQGTQVNVSS,low polyreactivity
19,QVQLVDSGGGLVQAGGSLRLSCAASGSIFRYNDMGWYRQAPGKERELVATITSGTNTYYADSVKGRFTISRDNEKNTVYLQMNSLKPEDTAVYYCAAGYPSWYYGYPYDSWGQGTQVTVSS,low polyreactivity
20,QDQIVESGGGLVQAGGSLRLSCAASGSIIWGNALGWYSQAPGKERELVAAISWGGGRTYYADSVKGRFTLSRDNAKNTVYLQMNSLKPEDTAVYYCNTRYPYVVSTGYDYWGQGTQVTVSS,high polyreactivity
21,QVQLVESGGGLVQAGGSLRLSCAASGSIFVAYDMGCYRQAPGKESALVAAIDSVGRTNYADSVKGRFTISRDNAKNTVYLQMNSLQPEDTAVYYCNADQYYSFYDPDDYWGQGTQVTVSS,low polyreactivity
22,QVQLVESGGGLVQAGGSLRLSCAASGLIFWYYTMGWYRPAPGKERELVAAITIGGSTYYADSVKGRFTISRDNAKNTVYLQMNSLKPEDTAVYYCNTRRGRSQGGRYEYDYWGQGTQVTVSS,low polyreactivity

row,Sequence,polyreactivity (PSR sort gate)
1,QVQLVESGGGLVQAGGSLRLSCAASGRIFTRYAMGWYRQAPGKERELVAAISYGGGGTYYADSVKGRFTISRDNAKNTVYLQMNSLKPEDTAVYYCATDDPLSQINEQGMDYWGQGTQVTVSS,low polyreactivity
2,QVQLVESGGGLVQAGGSLRLSCAASGRIFSRYTMGWYRQAPGKERELVAAISSRGGSTYYADSVKGRFTISRDNAKNTVYLQMNSLKPEDTAVYYCNTPSYSGSSPYDHWGQGTQVTVSS,high polyreactivity
3,QVQLVESGGGLVQAGGSLRLRCASSGITFRGYAMGWYRQAPGKERELVASITNTDSTYYADSVKGRFTISRDNAKNTVYLQMNSLKPEDTAVYYCAARRGRKYGYWGQGTQVTVSS,high polyreactivity
4,QVQLVESGGGLVQAGGSLRLSCAASGSTFVLYAMGWYRQAPGKERELVAAINSAGSTNYADSVKGRFTISRDNAKNTVYLQMNSLNPEDTAVYYCAAEYYYSYVDRTYYIYDYWGQGTQVTVSS,high polyreactivity
5,QVQLVESGGGLVQAGGSLRLSCAASGRTLYSYAMGWYRQAPGKERELVAAITSGGRTYYADSVKGRFTISRDNAKNTVYLQMNRLTPEDTAVYYCNDRRTFPRYDRNYESWGQGTQVTVSS,high polyreactivity
6,QVQLVESGGGLVQAGGSLRLSCAASGGIIQNYVMGWYRQAPGKEREFVATISQRGGITYYADSVKGRFTISRDNAKNTVYLQMNSLKPEDTAVYYCAARSYYAVYYWGQGTQVTVSS,high polyreactivity
7,QDQHVESGGGLVQAGGSLRLSCAASGRTIGYNAMGLYRQAPGKERELVAAITSSSGSTYYADSVKGRFTISRDNAKNTVYLQMNSLKPEDRAVYYCAAYFRRLLYDYWGQGTHVTVSS,high polyreactivity
8,QVQLVESGGGLVQAGGSLRLSCAASGITFLKYAMGWYRQATGKEREFVAAISRRGGSTYYADSVKGRFTISRDNAKNTVYLQMNSLKPEDTAVYYCAALTVRGTWSQNDYWGQGTQVTVSS,low polyreactivity
9,QVQLVESGGGLVQAGGSLRLSCAASGSTLARYAMGWYRQAPGKERELVAAISSDGRTYYADSVKGRFTISRDNAKNTVYLQIYSLKPEDTAVYYCATLRPYAYPQYDSWGQGTQVTVSS,high polyreactivity
10,PVQLVESGGGIVQAGGSLRLSCAASGTSFEYNAMGWSRPAPGKERELVAAITWSVGSTYYADSVKGRFTISRDNAKNTVYLQMNSLKPEDTAVYYCAAFDTASVYEFDYWGQGTQVTVSS,low polyreactivity
11,QVQLVESGGGLVQAGGSLRLSCAASGSTIRKNALGWSRQAPGKEREWVADIRRGGGTNYADSVKGRFTISRDNAKNTVYLQMNSLKPEDTAVYSCNTDILYYGRSKAPFYYCGQGTQVTVSS,high polyreactivity
12,QGQLEESGGGLVQAGGSLRLSCAAAGITFVDYSMGWYRQAPGKEMELVAGINWSGDGTSYADSVKGRFTISRDNAKNTVYLLMNSLKPEDTAVYDCAAYWYYYLMDYWGQGTQVTVSS,low polyreactivity
13,QVQLVESGGGLVQPGGSLLLSCAASRITFDHYAMAWYRRAPGKERELVAAITSGGNTNYADSVKGRFTISRDNAKNPVYLQMNSLKPEDTAVYYCNAGYDVCYYYWGKGTQVTVSS,low polyreactivity
14,QVQLVESGGGLVQAGGSLRLSCAASGSTFSWYAMGWYRQAPGKERELVAAITRSGGRTYYADSVKGRFTISRDNAKNTVYLQMNSLKPEDTAVYYCAAVQYKSPHNYWGQGTQVTVSS,high polyreactivity
15,QVQLVESGGGLVQAGGSLRLSCAASGSIFSKNAMGWYRQAPGKERELVAAITWSGGRTYYADSVKGRFTISRDNAKNTVFLQMNSLKPEDTAVYYCAAVSRVRYYLQTYDSWGQGTQVTVSS,high polyreactivity
16,QVQLVESGGGLVQAGGSLRLSCAASGSIFPSNAMGWYRQAPGKERELVAAINRDGISNYADSVKGRFTISRDNAKNTVYLQMNSLKPEDTAVYYCAAEFAWQWWEYGYWGQGTQVTVSS,low polyreactivity
17,QVQLVESGGGLVQAGGSLRLSCAASGRIFPYYAMGWYRQAPGKERELVAAISQSGGRTYYADSVKGRFTISRDNAKNTVYLQMNSLKPEDTAVYYCIAYTYSSGYDYWGQGTQVTVSS,high polyreactivity
18,QVQLVESGGGLVQAGGSLRLSCAASGGIFDTYAMGWYRQEPGKERELVAAISRRGGNTYYADSVKGRFTISRDNAKNTVYLQMNSLKPEDTAVYYCAAYYHGRMDYWGQGTQVTVSS,high polyreactivity
19,QVQLVESGGGLLQAGGSLRLSCAASGSIFYINAKGWYRQAPGKERELVAAITSDGSTYYADSVKGRFTISRDYANYTVYLQLNSLKPEYSAVYYCAADLTSDQYLYYWYWFSSWGQGTQGTVSS,low polyreactivity
20,QVQLVESGGGLVQAGGSLRLSCAASGYIFKGNVMGWYRQAPGKERELVAAISSSGGRTYYADSVKWRFTISRDNAKNNVYLQMYSLKPEDTAVYYCNTKHRTKPTGPVDYWGQGTQVTVSS,high polyreactivity
21,QVQLVESGGGLVQAGGSLRLTCAASGFTFTGNAMGWYRQAPGKEREFVAAISWSGGSTYYADSVKGRFTISRDNAKNTVYLQMNSLKPEDTAVYYCNKYRPYGRIYHLAYGRDYWGQGTQVTVSS,high polyreactivity
